According to patent publication US9950027 (TXP PHARMA, dated 2018):
Where two headings read alike, the source gives them in different places. Each block holds one binder with its values, some of them ahead of it. Side-chain parts run from the residue outwards. [ ]: non-standard residue; d: D form. Ac‑(Lys-Ac)Lys‑Lys = branched amino acid probe attached to the ε-amino group of the lysine

Legend:
[1] = target: T1, MC3r (human recombinant, CHO cells) (human, UniProt P41968 1-323); assay: radioligand binding, CHO cells expressing human MC3r; affinity as a multiple of αMSH's
T1 construct: whole, on cells
T1 sequence (P41968 whole entry): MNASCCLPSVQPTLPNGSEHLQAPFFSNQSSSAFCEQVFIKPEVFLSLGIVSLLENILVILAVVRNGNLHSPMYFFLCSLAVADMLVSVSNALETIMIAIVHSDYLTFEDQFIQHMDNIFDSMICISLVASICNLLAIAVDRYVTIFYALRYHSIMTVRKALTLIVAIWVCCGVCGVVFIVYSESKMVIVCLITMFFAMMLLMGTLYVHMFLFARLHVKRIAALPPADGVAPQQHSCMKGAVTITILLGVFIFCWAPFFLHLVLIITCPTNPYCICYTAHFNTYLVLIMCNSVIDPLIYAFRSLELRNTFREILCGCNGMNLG

[2] = target: T2, MC4r (human recombinant, CHO cells) (human, UniProt P32245 1-332); assay: radioligand binding, CHO cells expressing human MC4r; affinity as a multiple of αMSH's
T2 construct: whole, on cells
T2 sequence (P32245 whole entry): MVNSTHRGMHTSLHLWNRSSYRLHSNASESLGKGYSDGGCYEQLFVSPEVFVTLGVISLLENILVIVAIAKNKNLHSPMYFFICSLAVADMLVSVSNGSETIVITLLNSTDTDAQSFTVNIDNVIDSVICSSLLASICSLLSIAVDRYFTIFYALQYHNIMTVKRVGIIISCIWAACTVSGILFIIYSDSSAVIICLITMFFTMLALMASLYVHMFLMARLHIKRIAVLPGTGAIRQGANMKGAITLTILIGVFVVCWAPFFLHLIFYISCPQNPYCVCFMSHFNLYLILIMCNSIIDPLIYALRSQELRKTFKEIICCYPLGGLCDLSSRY

human GLP-2 receptor = target: T3, human GLP-2 receptor (human, UniProt O95838 1-553); assay: cell-based or functional assay
T3 sequence (looked up): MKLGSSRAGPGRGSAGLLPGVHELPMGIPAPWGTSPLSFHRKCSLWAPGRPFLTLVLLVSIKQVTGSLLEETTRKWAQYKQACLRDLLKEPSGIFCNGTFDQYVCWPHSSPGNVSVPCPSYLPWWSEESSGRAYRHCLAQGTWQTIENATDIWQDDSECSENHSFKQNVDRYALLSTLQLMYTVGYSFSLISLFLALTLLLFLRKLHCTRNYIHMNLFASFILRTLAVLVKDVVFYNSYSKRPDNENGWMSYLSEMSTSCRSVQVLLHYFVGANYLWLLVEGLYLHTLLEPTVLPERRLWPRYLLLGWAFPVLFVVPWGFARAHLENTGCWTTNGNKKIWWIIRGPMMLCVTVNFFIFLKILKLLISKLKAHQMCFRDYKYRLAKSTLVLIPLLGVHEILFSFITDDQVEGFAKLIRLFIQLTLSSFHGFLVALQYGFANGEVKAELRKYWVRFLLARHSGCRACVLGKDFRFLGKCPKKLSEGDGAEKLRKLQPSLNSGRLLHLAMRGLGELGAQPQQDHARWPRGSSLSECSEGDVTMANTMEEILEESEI

[3] = target: T4, MC1r (murine B16-F1 cells) (murine, UniProt Q01727 1-315); assay: radioligand binding, murine B16-F1 cells expressing MC1r; affinity as a multiple of αMSH's
T4 construct: whole, on cells; also called MCr1
T4 sequence (Q01727 whole entry): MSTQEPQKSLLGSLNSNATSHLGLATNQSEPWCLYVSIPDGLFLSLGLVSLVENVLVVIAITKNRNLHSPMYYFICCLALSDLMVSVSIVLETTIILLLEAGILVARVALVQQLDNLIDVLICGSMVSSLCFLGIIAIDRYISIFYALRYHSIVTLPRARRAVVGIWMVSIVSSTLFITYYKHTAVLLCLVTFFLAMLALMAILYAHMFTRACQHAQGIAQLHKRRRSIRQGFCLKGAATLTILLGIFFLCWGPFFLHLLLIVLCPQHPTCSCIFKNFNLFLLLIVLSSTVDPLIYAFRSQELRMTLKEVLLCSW

[4] = target: T1, MC3r (human recombinant, CHO cells); assay: displacement of 125I-NDP-αMSH, CHO cells expressing human MC3r; affinity as a multiple of αMSH's
Experimental: (§1) Murine B16-F1 cells expressing MCr1 are used for determination of binding affinity to and agonist activity against the MC1r. Human recombinant CHO cells expressing MC3r, MC4r or MC5r are used for determination of affinity to or agonist activity against the MC3r, MC4r and MC5r, respectively. […] The test items are tested in a concentration range of 10^-13 to 10^-5M.

[5] = target: T2, MC4r (human recombinant, CHO cells); assay: displacement of 125I-NDP-αMSH, CHO cells expressing human MC4r; affinity as a multiple of αMSH's
Experimental: as §1

[6] = target: T2, MC4r (human recombinant, CHO cells); assay: cell-based or functional assay
[7] = target: T5, MC5r (human recombinant, CHO cells) (human, UniProt P33032 1-325); assay: cell-based or functional assay
T5 sequence (P33032 whole entry): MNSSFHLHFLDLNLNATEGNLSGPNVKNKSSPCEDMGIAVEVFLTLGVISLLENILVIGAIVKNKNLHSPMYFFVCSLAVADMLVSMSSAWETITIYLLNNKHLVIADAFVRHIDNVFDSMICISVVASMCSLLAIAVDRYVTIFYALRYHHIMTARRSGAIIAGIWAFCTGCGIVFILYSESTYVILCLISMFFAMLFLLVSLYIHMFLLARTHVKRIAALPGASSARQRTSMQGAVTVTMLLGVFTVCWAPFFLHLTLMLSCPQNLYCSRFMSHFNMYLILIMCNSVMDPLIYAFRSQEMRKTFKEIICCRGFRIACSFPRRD

[8] = target: T4, MC1r (murine B16-F1 cells); assay: cell-based or functional assay
[9] = target: T1, MC3r (human recombinant, CHO cells); assay: cell-based or functional assay
[10] = target: T4, MC1r (murine B16-F1 cells); assay: displacement of 125I-NDP-αMSH, murine B16-F1 cells expressing MC1r
Experimental: as §1

[11] = target: T1, MC3r (human recombinant, CHO cells); assay: displacement of 125I-NDP-αMSH, human recombinant CHO cells expressing MC3r
Experimental: as §1

[12] = target: T2, MC4r (human recombinant, CHO cells); assay: displacement of 125I-NDP-αMSH, human recombinant CHO cells expressing MC4r
Experimental: as §1

[13] = target: T5, MC5r (human recombinant, CHO cells); assay: displacement of 125I-NDP-αMSH, human recombinant CHO cells expressing MC5r
Experimental: as §1

[14] = target: T5, MC5r (human recombinant, CHO cells); assay: displacement of 125I-NDP-αMSH, CHO cells expressing human MC5r; affinity as a multiple of αMSH's
Experimental: as §1

[15] = target: T4, MC1r (murine B16-F1 cells); assay: displacement of 125I-NDP-αMSH, murine B16-F1 cells expressing MC1r; affinity as a multiple of αMSH's
Experimental: as §1

[16] = target: T6, recombinant human type 2 Formyl peptide receptor (FPR2) (human, UniProt P25090 1-351); assay: cell-based or functional assay
T6 sequence (looked up): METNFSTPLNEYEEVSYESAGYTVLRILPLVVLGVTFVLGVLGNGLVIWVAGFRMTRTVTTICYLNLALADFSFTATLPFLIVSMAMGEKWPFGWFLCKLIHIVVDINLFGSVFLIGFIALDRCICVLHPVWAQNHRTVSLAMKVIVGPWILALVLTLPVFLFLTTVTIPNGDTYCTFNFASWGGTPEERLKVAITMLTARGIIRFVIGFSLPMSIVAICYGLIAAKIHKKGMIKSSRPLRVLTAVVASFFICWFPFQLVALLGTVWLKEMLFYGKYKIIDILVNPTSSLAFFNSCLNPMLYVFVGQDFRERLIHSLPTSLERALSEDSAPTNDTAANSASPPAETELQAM

[17] = target: T2, MC4r (human recombinant, CHO cells); assay: cell-based or functional assay; remark: listed apart in the source
[18] = target: T5, MC5r (human recombinant, CHO cells); assay: cell-based or functional assay; remark: listed apart in the source
[19] = target: T4, MC1r (murine B16-F1 cells); assay: cell-based or functional assay; remark: listed apart in the source
[20] = target: T1, MC3r (human recombinant, CHO cells); assay: displacement of 125I-NDP-αMSH, CHO cells expressing human MC3r (method of Example 2, not restated)
Experimental: as §1

[21] = target: T2, MC4r (human recombinant, CHO cells); assay: displacement of 125I-NDP-αMSH, CHO cells expressing human MC4r (method of Example 2, not restated)
Experimental: as §1

[22] = target: T5, MC5r (human recombinant, CHO cells); assay: displacement of 125I-NDP-αMSH, CHO cells expressing human MC5r (method of Example 2, not restated)
Experimental: as §1

[23] = target: T4, MC1r (murine B16-F1 cells); assay: displacement of 125I-NDP-αMSH, murine B16-F1 cells expressing MC1r (method of Example 2, not restated)
Experimental: as §1

MCr binding affinity relative to αMSH [1]: 46 fold
MCr binding affinity relative to αMSH [2]: 37 fold
B1: Analogue 7 (Example 3): Ac-(Ac-Lys-Lys)Lys-Tyr-Val-Nle-Gly-His-DPhe-Arg-Trp-Asp-Arg-Phe-Gly-NH2 (peptide)
peptide: KYVXGHFRWDRFG
modifications: alpha-amino group of Lys1 acetylated; Ac-Lys-Lys attached to the epsilon-amino group of Lys1; Nle at position 4 (written X); D-Phe at position 7; C-terminal amide
notes: BAP-modified γ-MSH analogue; X = norleucine

EC50 (nM), cAMP production (HTRF) (human GLP-2 receptor): 0.36 nM
Binder: H-HADGSFSDEMNTILDNLAARDFINWLIQTKITDR-OH [GLP-2 (1-34) control peptide: …]

MCr binding affinity relative to αMSH [1]: 38 fold
MCr binding affinity relative to αMSH [2]: 2.8 fold
MCr binding affinity relative to αMSH [3]: 1.9 fold
B2: Analogue 5 (Example 3): Ac-(Ac-Lys-Lys)Lys-Tyr-Val-Nle-Gly-His-Phe-Arg-DTrp-Asp-Arg-Phe-Gly-NH2 (peptide)
peptide: KYVXGHFRWDRFG
modifications: alpha-amino group of Lys1 acetylated; Ac-Lys-Lys attached to the epsilon-amino group of Lys1; Nle at position 4 (written X); D-Trp at position 9; C-terminal amide
notes: as for B1

MCr binding relative to Control peptide 1 (αMSH) [4]: 41 fold
MCr binding relative to Control peptide 1 (αMSH) [5]: 47 fold
B3: Analogue 3 (Example 2): Ac-(Ac-Lys-Lys)Lys-Ser-Tyr-Ser-Nle-Glu-His-DPhe-Arg-Trp-Gly-Lys-Pro-Val-NH2 (peptide)
peptide: KSYSXEHFRWGKPV
modifications: alpha-amino group of Lys1 acetylated; Ac-Lys-Lys attached to the epsilon-amino group of Lys1; Nle at position 5 (written X); D-Phe at position 8; C-terminal amide
notes: BAP-modified α-MSH analogue; X = norleucine

MCr binding relative to Control peptide 1 (αMSH) [4]: 3.3 fold
MCr binding relative to Control peptide 1 (αMSH) [5]: 8.5 fold
B4: Analogue 2 (Example 2): Ac-(Ac-Lys-Lys)Lys-Ser-Tyr-Ser-Met-Glu-His-Phe-Arg-Trp-Gly-Lys-Pro-(D-Val)-NH2 (peptide)
peptide: KSYSMEHFRWGKPV
modifications: alpha-amino group of Lys1 acetylated; Ac-Lys-Lys attached to the epsilon-amino group of Lys1; D-Val at position 14; C-terminal amide
notes: BAP-modified α-MSH analogue

MCr binding affinity relative to αMSH [1]: 37 fold
MCr binding affinity relative to αMSH [2]: 10.7 fold
MCr binding affinity relative to αMSH [3]: 7.3 fold
B5: Analogue 8 (Example 3): Ac-(Ac-Lys-Lys)Lys-Tyr-Val-Nle-Gly-His-DPhe-Arg-DTrp-Asp-Arg-Phe-Gly-NH2 (peptide)
peptide: KYVXGHFRWDRFG
modifications: alpha-amino group of Lys1 acetylated; Ac-Lys-Lys attached to the epsilon-amino group of Lys1; Nle at position 4 (written X); D-Phe at position 7; D-Trp at position 9; C-terminal amide
notes: as for B1

EC50, cAMP accumulation (agonist activity) [6]: 18 nM
EC50, cAMP accumulation (agonist activity) [7]: 625 nM
EC50, cAMP accumulation (agonist activity) [8]: 8.9 nM
EC50, cAMP accumulation (agonist activity) [9]: 53 nM
Ki [10]: 1.2 nM
Ki [11]: 24 nM
Ki [12]: 26 nM
Ki [13]: 193 nM
MCr binding relative to Control peptide 1 (αMSH) [14]: 2 fold
MCr binding relative to Control peptide 1 (αMSH) [15]: 4 fold
B6: α-MSH Analogue 1: Ac-(Ac-Lys-Lys)Lys-Ser-Tyr-Ser-Met-Glu-His-Phe-Arg-Trp-Gly-Lys-Pro-Val-NH2 (peptide)
peptide: KSYSMEHFRWGKPV
modifications: alpha-amino group of Lys1 acetylated; Ac-Lys-Lys attached to the epsilon-amino group of Lys1 (branched amino acid probe Ac-(Ac-Lys-Lys)Lys-); C-terminal amide

MCr binding relative to Control peptide 1 (αMSH) [4]: 42 fold
MCr binding relative to Control peptide 1 (αMSH) [5]: 53 fold
MCr binding relative to Control peptide 1 (αMSH) [15]: 9.4 fold
Binder: Ac-K([Lys-Lys-Ac])SSIISH[dF]RWGKPV-NH2 (BAP-modified α-MSH analogue) [Analogue 4 (Example 2): Ac-(Ac-Lys-Lys)Lys-Ser-Ser-Ile-Ile-Ser-His-DPhe-Arg-Trp-Gly-Lys-Pro-Val-NH2]

EC50, agonist activity (aequorin light emission) [16]: 1560 nM
Binder: Ac-AMVSEFLK(Ac‑(Lys-Ac)Lys‑Lys)QAW-NH2

MCr binding affinity relative to αMSH [1]: 4.6 fold
MCr binding affinity relative to αMSH [2]: 2.9 fold
B7: Analogue 6 (Example 3): Ac-(Ac-Lys-Lys)Lys-Tyr-Val-Nle-Gly-His-Phe-Arg-Trp-Asp-Arg-Phe-Gly-NH2 (peptide)
peptide: KYVXGHFRWDRFG
modifications: alpha-amino group of Lys1 acetylated; Ac-Lys-Lys attached to the epsilon-amino group of Lys1; Nle at position 4 (written X); C-terminal amide
notes: as for B1

EC50, cAMP accumulation (agonist activity) [17]: 252 nM
EC50, cAMP accumulation (agonist activity) [18]: 555 nM
EC50, cAMP accumulation (agonist activity) [19]: 68 nM
Ki [20]: 15 nM
Ki [21]: 150 nM
Ki [22]: 215 nM
Ki [23]: 3.8 nM
B8: γ-MSH Analogue 1: Ac-(Ac-Lys-Lys)Lys-Tyr-Val-Met-Gly-His-Phe-Arg-DTrp-Asp-Arg-Phe-Gly-NH2 (peptide)
peptide: KYVMGHFRWDRFG
modifications: alpha-amino group of Lys1 acetylated; Ac-Lys-Lys attached to the epsilon-amino group of Lys1; D-Trp at position 9; C-terminal amide
